Measurements: patent US20130174289A1, “Na+/Mg2+ Exchanger” (FBN - Leibnitz-Institut fur Nutztierbiologie, published 2013)
Substitutions are numbered along the chain they refer to. One block for each binder: values may come before it.

Molecular target: SLC41A1 (human)
Assay: split-ubiquitin method screen (DUALmembrane SU-YTH) for SLC41A1 complex-forming partners

Chain of SLC41A1 (human) (chain, as listed by the source limits assumed): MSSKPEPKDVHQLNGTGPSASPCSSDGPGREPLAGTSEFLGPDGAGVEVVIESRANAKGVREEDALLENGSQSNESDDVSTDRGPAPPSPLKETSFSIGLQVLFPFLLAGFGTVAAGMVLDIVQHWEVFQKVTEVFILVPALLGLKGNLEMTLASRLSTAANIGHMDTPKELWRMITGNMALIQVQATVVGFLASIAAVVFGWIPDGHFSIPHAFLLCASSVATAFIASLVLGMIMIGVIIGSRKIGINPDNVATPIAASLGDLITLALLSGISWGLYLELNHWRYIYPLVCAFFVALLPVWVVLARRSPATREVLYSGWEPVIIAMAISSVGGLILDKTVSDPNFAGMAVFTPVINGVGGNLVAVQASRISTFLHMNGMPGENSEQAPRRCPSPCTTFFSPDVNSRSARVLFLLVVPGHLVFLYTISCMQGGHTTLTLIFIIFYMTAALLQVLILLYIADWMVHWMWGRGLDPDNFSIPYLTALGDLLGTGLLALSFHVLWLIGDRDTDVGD

occurrence: 1 clones
B1: ATP synthase subunit a (Tachyglossus aculeatus aculeatus) (other)
chain: MNENLFASFITPTILGISILPLIMIFPCLLFSAPNRWMPNRLVALQLWLVRMVTKQMMSMHNKQGRMWTLMLITLIMFIASTNLLGLLPYTFTPTTQLSMNMGMAVPLWLGTVLMGFRNKPKSSLAHFLPQGTPTPLIPMLIIIETISLFIQPVALAVRLTANITAGHLLIHLIGSATLALSSISLTVSTITFTILFLLTILEIAVALIQAYVFTLLVSLYLHDNT

occurrence: 10 clones
B2: B-cell receptor-associated protein 31 (other)
chain: MSLQWTAVATFLYAEVFVVLLLCIPFISPKRWQKIFKSRLVELLVSYGNTFFVVLIVILVLLVIDAVREIRKYDDVTEKVNLQNNPGAMEHFHMKLFRAQRNLYIAGFSLLLSFLLRRLVTLISQQATLLASNEAFKKQAESASEAAKKYMEENDQLKKGAAVDGGKLDVGNAEVKLEEENRSLKADLQKLKDELASTKQKLEKAENQVLAMRKQSEGLTKEYDRLLEEHAKLQAAVDGPMDKKEE

occurrence: 1 clones
B3: ATP synthase subunit a (Homo sapiens) (other)
chain: MNENLFASFIAPTILGLPAAVLIILFPPLLIPTSKYLINNRLITTQQWLIKLTSKQMMTMHNTKGRTWSLMLVSLIIFIATTNLLGLLPHSFTPTTQLSMNLAMAIPLWAGTVIMGFRSKIKNALAHFLPQGTPTPLIPMLVIIETISLLIQPMALAVRLTANITAGHLLMHLIGSATLAMSTINLPSTLIIFTILILLTILEIAVALIQAYVFTLLVSLYLHDNT

occurrence: 1 clones
B4: 3-beta-hydroxysteroid-Delta(8), Delta(7)-isomerase (Rattus norvegicus) (enzyme)
chain: MTTNMLPLHPYWPRHLRLDNFVPNDLPTWHILVGLFSFSGVLIVITWLLSSRVSVVPLGTGRRLALCWFAVCTFIHLVIEGWFSFYHEILLEDQAFLSQLWKEYSKGDSRYILSDGFIVCMESVTACLWGPLSLWVVIAFLRHQPFRFVLQLVVSVGQIYGDVLYFLTELRDGFQHGELGHPLYFWFYFVIMNAIWLVIPGILVFDAIKHLTNAQSMLDNKVMKIKSKHN

occurrence: 2 clones
B5: Transmembrane protein 14A (other)
chain: MDLIGFGYAALVTFGSIFGYKRRGGVPSLIAGLFVGCLAGYGAYRVSNDKRDVKVSLFTAFFLATIMGVRFKRSKKIMPAGLVAGLSLMMILRLVLLLL

occurrence: 3 clones
B6: UPF0414 transmembrane protein C20orf30 (other)
chain: MMPSRTNLATGIPSSKVKYSRLSSTDDGYIDLQFKKTPPKIPYKAIALATVLFLIGAFLIIIGSLLLSGYISKGGADRAVPVLIIGILVFLPGFYHLRIAYYASKGYRGYSYDDIPDFDD

occurrence: 2 clones
B7: Signal peptidase complex subunit 1 (other)
chain: MARGGDTGCTGPSETSASGAVAIAFPGLEGPPADAQYQTLALTVPKSWSPSPRSLPPALSCPPPQPAMLEHLSSLPTQMDYKGQKLAEQMFQGIILFSAIVGFIYGYVAEQFGWTVYIVMAGFAFSCLLTLPPWPIYRRHPLKWLPVQESSTDDKKPGERKIKRHAKNN

occurrence: 1 clones
B8: UPF0480 protein C15orf24 homolog (other)
chain: SEVPGAAAEGSGGSGVGIGDRFKIEGRAVVPGVKPQDWISAARVLVDGEEHVGFLKTDGSFVVHDIPSGSYVVEVVSPAYRFDPVRVDITSKGKMRARYVNHIKTSEVVRLPYPLQMKSSGPPSYFIKRESWGWTDFLMNPMVMMMVLPLLIFVLLPKVVNTSDPDMRREMEQSMNMLNSNHELPDVSEFMTRLFSSKSSGKSSSGSSKTGKSGAGKRR

occurrence: 4 clones
B9: UPF0480 protein C15orf24 (other)
chain: B8 chain with H102Y

occurrence: 2 clones
B10: Protein YIPF6 (other)
chain: MAEAEESPGDPGTASPRPLFAGLSDISISQDIPVEGEITIPMRSRIREFDSSTLNESVRNTIMRDLKAVGKKFMHVLYPRKSNTLLRDWDLWGPLILCVTLALMLQRDSADSEKDGGPQFAEVFVIVWFGAVTITLNSKLLGGNISFFQSLCVLGYCILPLTVAMLICRLVLLADPGPVNFMVRLFVVIVMFAWSIVASTAFLADSQPPNRRALAVYPVFLFYFVISWMILTFTPQ

occurrence: 1 clones
B11: ATP synthase subunit a (Pan troglodytes) (other)
chain: MNENLFASFAAPTILGLPAAVLIILFPPLLVPTSKHLINNRLITTQQWLIQLTSKQMMTMHSTKGRTWSLMLVSLIIFITTTNLLGLLPHSFTPTTQLSMNLAMAIPLWAGAVVMGFRFKTKNALAHFLPQGTPTPLIPMLVIIETISLLIQPMALAVRLTANITAGHLLMHLIGSATLALSTINLPYALIIFTILILLTILEIAVALIQAYVFTLLVSLYLHDNT

occurrence: 2 clones
B12: Uncharacterized protein C10orf35 (other)
chain: MVRILANGEIVQDDDPRVRTTTQPPRGSIPRQSFFNRGHGAPPGGPGPRQQQAGARLGAAQSPFNDLNRQLVNMGFPQWHLGNHAVEPVTSILLLFLLMMLGVRGLLLVGLVYLVSHLSQR

occurrence: 2 clones
B13: Kunitz-type protease inhibitor 2 (other)
chain: ADRERSIHDFCLVSKVVGRCRASMPRWWYNVTDGSCQLFVYGGCDGNSNNYLTKEECLKKCATVTENATGDLATSRNAADSSVPSAPRRQDSEDHSSDMFNYEEYCTANAVTGPCRASFPRWYFDVERNSCNNFIYGGCRGNKNSYRSEEACMLRCFRQQENPPLPLGSKVVVLAGLFVMVLILFLGASMVYLIRVARRNQERALRTVWSSGDDKEQLVKNTYVL

occurrence: 1 clones
B14: ATP synthase subunit a (Cricetulus griseus) (other)
chain: MNENLFSSFITPTLMGLPIIILIIMFPPVIMTSSKRLVNNRFHTFQQWLIKLITKQMMAIHSPKGRTWSLMLASLIIFIGSTNLLGLLPHTFTPTTQLSMNLGMAIPPWAGAVILGFRHKMKDSLAHFLPQGTPIPLIPMLVIIETISLFIQPMALAVRLTANITAGHLLMHLIGGATLVLTSISLPTAMITFIILIMLTILEFAVALIQAYVFTLLVSLYLHDNT

occurrence: 2 clones
B15: Transmembrane protein 147 (other)
chain: MTLFHFGNCFALAYFPYFITYKCSGLSEYNAFWKCVQAGVTYLFVQLCKMLFLATFFPTWEGGIYDFIGEFMKASVDVADLIGLNLVMSRNAGKGEYKIMVAALGWATAELIMSRCIPLWVGARGIEFDWKYIQMSIDSNISLVHYIVASAQVWMITRYDLYHTFRPAVLLLMFLSVYKAFVMETFVHLCSLGSWAALLARAVVTGLLALSTLALYVAVVNVHS

occurrence: 2 clones
B16: Probable ergosterol biosynthetic protein 28 (other)
chain: MSRFLNVLRSWLVMVSIIAMGNTLQSFRDHTFLYEKLYTGKPNLVNGLQARTFGIWTLLSSVIRCLCAIDIHNKTLYHITLWTFLLALGHFLSELFVYGTAAPTIGVLAPLMVASFSILGMLVGLRYLEVEPVSRQKKRN

occurrence: 2 clones
B17: Uncharacterized protein C4orf3 (other)
chain: MEVDAPGVDGRDGLRERRGFSEGGRQNFDVRPQSGANGLPKHSYWLDLWLFILFDVVVFLFVYFLP

occurrence: 4 clones
B18: Translocon-associated protein subunit gamma (other)
chain: MAPKGSSKQQSEEDLLLQDFSRNLSAKSSALFFGNAFIVSAIPIWLYWRIWHMDLIQSAVLYSVMTLVSTYLVAFAYKNVKFVLKHKVAQKREDAVSKEVTRKLSEADNRKMSRKEKDERILWKKNEVADYEATTFSIFYNNTLFLVVVIVASFFILKNFNPTVNYILSISASSGLIALLSTGSK

occurrence: 11 clones
B19: Protein disulfide-isomerase A6 (enzyme)
chain: LYSSSDDVIELTPSNFNREVIQSDSLWLVEFYAPWCGHCQRLTPEWKKAATALKDVVKVGAVDADKHHSLGGQYGVQGFPTIKIFGSNKNRPEDYQGGRTGEAIVDAALSALRQLVKDRLGGRSGGYSSGKQGRSDSSSKKDVIELTDDSFDKNVLDSEDVWMVEFYAPWCGHCKNLEPEWAAAASEVKEQTKGKVKLAAVDATVNQVLASRYGIRGFPTIKIFQKGESPVDYDGGRTRSDIVSRALDLFSDNAPPPELLEIINEDIAKRTCEEHQLCVVAVLPHILDTGAAGRNSYLEVLLKLADKYKKKMWGWLWTEAGAQSELETALGIGGFGYPAMAAINARKMKFALLKGSFSEQGINEFLRELSFGRGSTAPVGGGAFPTIVEREPWDGRDGELPVEDDIDLSDVELDDLGKDEL

occurrence: 3 clones
B20: Immediate early response 3-interacting protein 1 (other)
chain: MAFTLYSLLQAALLCVNAIAVLHEERFLKNIGWGTDQGIGGFGEEPGIKSQLMNLIRSVRTVMRVPLIIVNSIAIVLLLLFG

occurrence: 5 clones
B21: Peptidyl-prolyl cis-trans isomerase B (enzyme)
chain: not shown
